The target of this experiment is recombinant N-terminal His6-tagged human FABP3 (human). Put plainly: MST; Monolith NT.115; 20 nM NT-650-NHS-labelled FABP3, unlabelled peptides 500 µM to 0.0153 µM in two-fold dilutions; 25 °C; PBS with 0.05% Tween 20, pH 7.4; 40% MST power, 60% LED power; 1:1 fit; triplicates.

In general, Kd refers to a measure of binding affinity in units of concentration.

Square brackets hold non-standard residues; d marks the D form. Ends that are not written are not given here.

Sequence of recombinant N-terminal His6-tagged human FABP3 (human) (P05413 2-133): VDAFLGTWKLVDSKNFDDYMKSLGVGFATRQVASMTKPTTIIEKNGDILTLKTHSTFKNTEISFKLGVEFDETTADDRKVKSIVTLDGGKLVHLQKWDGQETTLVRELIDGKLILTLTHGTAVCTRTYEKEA

B1: A-CooP (peptide)
peptide: ACGLSGLGVA-NH2
Regarding B1, the Kd came to 2.18 µM.

B2: A-[Ala^7]CooP (peptide)
peptide: ACGLSGLAVA-NH2
For B2, the Kd came out at 133 µM.

B3: RI-A-CooP (peptide)
peptide: [dA][dV]G[dL]G[dS][dL]G[dC][dA]-NH2
modifications: N-terminus assumed
SMILES: CC(C)C[C@@H](NC(=O)CNC(=O)[C@H](NC(=O)[C@@H](C)N)C(C)C)C(=O)NCC(=O)N[C@H](CO)C(=O)N[C@H](CC(C)C)C(=O)NCC(=O)N[C@H](CS)C(=O)N[C@H](C)C(N)=O
As to B3, the fold lower binding affinity compared to A-CooP was determined as 10 fold.

B4: A-CooP-K (peptide)
peptide: ACGLSGLGVAK-NH2
Consider B4, for which the Kd worked out at 0.07 µM.

B5: KA-CooP (peptide)
peptide: KACGLSGLGVA-NH2
For the molecule B5, the Kd stood at 0.63 µM.

These data come from paper PMC7409020, “Tumor-Targeting Peptides: The Functional Screen of Glioblastoma Homing Peptides to the Target Protein FABP3 (MDGI)” (Cancers, 2020).
